The target of this test is poly-(α,β)-DL-aspartic acid sodium salt. As to the kind of experiment: turbidity at 600 nm + light microscopy. As to conditions: scale: polyHis:polyAsp.

As for poly-L-histidine (peptide), the volume ratio polyHis:polyAsp at maximum turbidity came to 0.82.

(Values after paper PMC4104756.)
